Measurements reported in paper PMC4774645.

B1: human matrix metalloproteinase 9 (hMMP-9): mS38 (protein)
parent chain: MSLWQPLVLVLLVLGCCFAAPRQRQSTLVLFPGDLRTNLTDRQLAEEYLYRYGYTRVAEMRGESKSLGPALLLLQKQLSLPETGELDSATLKAMRTPRCGVPDLGRFQTFEGDLKWHHHNITYWIQNYSEDLPRAVIDDAFARAFALWSAVTPLTFTRVYSRDADIVIQFGVAEHGDGYPFDGKDGLLAHAFPPGPGIQGDAHFDDDELWSLGKGVVVPTRFGNADGAACHFPFIFEGRSYSACTTDGRSDGLPWCSTTANYDTDDRFGFCPSERLYTQDGNADGKPCQFPFIFQGQSYSACTTDGRSDGYRWCATTANYDRDKLFGFCPTRADSTVMGGNSAGELCVFPFTFLGKEYSTCTSEGRGDGRLWCATTSNFDSDKKWGFCPDQGYSLFLVAAHEFGHALGLDHSSVPEALMYPMYRFTEGPPLHKDDVNGIRHLYGPRPEPEPRPPTTTTPQPTAPPTVCPTGPPTVHPSERPTAGPTGPPSAGPTGPPTAGPSTATTVPLSPVDDACNVNIFDAIAEIGNQLYLFKDGKYWRFSEGRGSRPQGPFLIADKWPALPRKLDSVFEERLSKKLFFFSGRQVWVYTGASVLGPRRLDKLGLGADVAQVTGALRSGRGKMLLFSGRRLWRFDVKAQMVDPRSASEVDRMFPGVPLDTHDVFQYREKAYFCQDRFYWRVSSRSELNQVDQVGYVTYDILQCPED
B2: human matrix metalloproteinase 9 (hMMP-9): tunicamycin (protein)
parent chain: B1 parent chain
B3: human matrix metalloproteinase 9 (hMMP-9): mS38/ N120S (protein)
parent chain: B1 parent chain
B4: human matrix metalloproteinase 9 (hMMP-9): N38G (protein)
parent chain: B1 parent chain
B5: human matrix metalloproteinase 9 (hMMP-9): CST (1 mM) (protein)
parent chain: B1 parent chain
B6: human matrix metalloproteinase 9 (hMMP-9): castanospermine (CST) (protein)
parent chain: B1 parent chain
B7: human matrix metalloproteinase 9 (hMMP-9): N120S (protein)
parent chain: B1 parent chain
B8: human matrix metalloproteinase 9 (hMMP-9): tunicamycin (250 ng/ml) (protein)
parent chain: B1 parent chain
B9: human matrix metalloproteinase 9 (hMMP-9): N38E (protein)
parent chain: B1 parent chain
B10: human matrix metalloproteinase 9 (hMMP-9): N38P (protein)
parent chain: B1 parent chain

Tests used:
[1] = Western blot of culture media, 24 h; conditions: glycan lost; control: wild type
[2] = fluorogenic substrate kinetics with TIMP-1 titration; conditions: glycan lost; control: wild type
[3] = mCherry fluorescence in media, 32 h time course; conditions: glycan lost; control: wild type
[4] = gelatin zymography of secreted protein; conditions: glycan lost; control: wild type
[5] = APMA or MMP-3 zymogen activation time course, Western; conditions: glycan lost; control: wild type
[6] = mCherry co-localisation with organelle-targeted eGFP; conditions: glycan lost; control: wild type
[7] = Western blot of cell lysate; conditions: glycan lost; control: wild type
[8] = Western blot of media, transfected HEK293; conditions: control: untreated
[9] = fluorogenic substrate assay on cell lysate; conditions: glycan lost; control: wild type
[10] = mCherry fluorescence in media, 24 h, N38X series; conditions: glycan lost; control: wild type
[11] = hMMP-9-mCherry fluorescence microscopy; conditions: control: untreated
[12] = mCherry fluorescence in media, 24 h; conditions: glycan changed form; control: untreated

Protein | expression_or_secretion [1] | expression_or_secretion, fold_change [3] | localisation_or_trafficking [6] | expression_or_secretion [7] | expression_or_secretion [10] | also measured
B1 | no change | no change | no change | no change |  | other: inhibition by TIMP-1 [2]: no change; enzymatic_activity [4]: no change; other: proteolytic processing [5]: no change
B2 |  |  |  |  |  | expression_or_secretion ([8]; glycan lost): decreases
B3 | abolishes | decreases | changes | no change |  | enzymatic_activity [9]: decreases
B4 |  |  |  |  | no change | 
B5 |  |  |  |  |  | localisation_or_trafficking ([11]; glycan changed form): changes; expression_or_secretion [12]: decreases
B6 |  |  |  |  |  | expression_or_secretion ([8]; glycan changed form): decreases
B7 | decreases | decreases | changes | no change |  | enzymatic_activity [9]: decreases
B8 |  |  |  |  |  | localisation_or_trafficking ([11]; glycan lost): changes
B9 |  |  |  |  | no change | 
B10 |  |  |  |  | no change | 
